# Measurements published in patent US12460006B2, “Antibodies against integrin alpha 11 beta 1” (Momenta Pharmaceuticals, Inc., priority 2019, dated 2025).
# T1: α11β1 I Domain (Homo sapiens, UniProt Q9UKX5)
# T1 sequence (Q9UKX5 164-345 limits assumed): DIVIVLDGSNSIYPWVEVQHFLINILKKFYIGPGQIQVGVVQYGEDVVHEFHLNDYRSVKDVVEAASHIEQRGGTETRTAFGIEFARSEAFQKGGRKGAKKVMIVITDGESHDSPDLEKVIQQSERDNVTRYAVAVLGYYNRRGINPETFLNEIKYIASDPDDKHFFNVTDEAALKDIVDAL
# How the values were obtained:
# [1] = tested on: A549 cells; assay: Tumor xenograft model; format: in vivo, C.B-17 SCID mice; details: for Days to Volume Doubling (ave, 95% CI): intraperitoneal every 3 days, 7 doses; for inhibition of tumor growth compared to isotype control: A549 xenograft, SCID mice
# Procedure: Fifty-six female C.B-17 SCID mice were inoculated with A549 cells (5×10^6 cells/mouse) subcutaneously in the flank. Once tumor volume reached ˜100 mm^3, animals were randomized amongst 7 groups of 8 mice each. Mice were then treated intraperitonealy every 3 days for a total of 7 doses with isotype controls or novel mAbs 79E3E3, 16E10 and 9G04 (2 and 20 mg/kg) or with docetaxel at 10 mg/kg every 4 days for a total of 6 doses. Tumor volumes and body weights were recorded twice a week with a gap of 2-3 days in between two measurements until any of the following conditions defined were observed: loss of 20% or more body weight; tumors that inhibit normal physiological function such as eating, drinking, and mobility; ulcerated tumors; tumor size greater than 2000 mm^3 and clinical observations of prostration, paralysis, seizures and hemorrhages.
# In this example, studies were performed to determine if inhibition of α11β1 function with mAb results in xenograft growth inhibition. As shown in FIG. 16 and Table 4, blocking α11β1 on mouse CAFs impeded xenograft growth in SCID mice.
# [2] = biological target: T1, α11β1 I Domain; assay: SPR binding to α11β1 I Domain; details: SPR data
# Procedure: (§1) The affinity of antibodies for human α11β1 was measured by surface plasmon resonance assay (SPR). Affinity was measured at pH 7.6 and 25° C. with a Biacore T200 instrument. Anti-HIS antibody was immobilized on the SPR sensor surface using EDC/NHS covalent attachment. HIS-tagged human α11β1 was captured on the sensor surface and a single-cycle kinetics assay was used. Increasing concentrations of test antibody were injected in series over the sensor-bound α11β1. Dissociation was monitored for 1000 seconds. A sensor surface with only anti-HIS antibody and a series of blank injections were used to double-reference subtract the data. A 1:1 Langmuir model was fit to the data to estimate the kinetic association and dissociation constants. The affinity (equilibrium dissociation constant) of the interaction was calculated by dividing the kinetic dissociation constant by the kinetic association constant. Between injection cycles α11β1 and bound antibody were removed with an injection of 10 mM glycine at pH 1.5.
# (§2) The binding affinity of antibodies for the α11β1 Headpiece and α11β1 I Domain as measured by SPR is shown in FIG. 10A and FIG. 10B, respectively.
# [3] = tested on: CHO cell lines expressing α11; assay: Collagen gel contraction assay; format: cell-based, human; details: for Inhibition of CHO-K1 gel contraction: Yes/No; for inhibition of CHO-hu α11-mediated collagen gel contraction: vs untreated
# Procedure: 24-well plates were blocked with 2% BSA in PBS overnight at 37° C. The following day, the plates were washed 3 times with PBS before being used in the assay. Human CHO cell lines expressing α11 were harvested and resuspended at 1.25×10^6 in ExpiCHO Expression Medium (Gibco™ Cat #A2910002). The collagen gel solution was prepared by diluting 3 mg/mL stock collagen type I (Gibco™ Collagen I Rat Protein, Tail Cat #A1048301) to 1 mg/mL in the media containing the CHO cells. Sodium hydroxide was added to the solution to neutralize the pH and 400 μL of the collagen solution was added to each well of the 24-well plates. For the wells where the antibodies were included in the collagen gel solution, CHO cells were prepared at 2.5×10^6 and the antibodies were prepared at 2× final concentration in ExpiCHO media. The cells and antibodies were then combined 1:1 before the addition of the stock collagen type 1. The gels were allowed to polymerize for 60 minutes at 37° C. Antibodies were added to the ExpiCHO media, which was then layered on top of the polymerized gel (400 μL/well). The gels were incubated for 6 days at 37° C. before gel contraction was quantified. Images of each well were analyzed using Image J and gel contraction was determined as a percentage of the initial gel area.
# Selected exemplary antibodies were tested for the ability to inhibit cell-mediated 3D gel contraction because this ability is directly linked to the functionality of the exemplary antibodies.
# [4] = tested on: α11β1 Headpiece; assay: SPR binding to α11β1 Headpiece; parameters: species or system human; details: SPR data
# Procedure: as §1, §2
Molecule,"Days to Volume Doubling (ave, 95% CI) ([1]; 2mpk)","Days to Volume Doubling (ave, 95% CI) ([1]; 20mpk)",inhibition of tumor growth compared to isotype control [1],binding to the I domain of α11β1 [2],Inhibition of CHO-K1 gel contraction [3],inhibition of CHO-hu α11-mediated collagen gel contraction [3],binding to the headpiece domain of α11β1 [4]
"79E3E3: rat anti-α11β1 mAb; VH SEQ ID NO: 145, VL SEQ ID NO: 146 (antibody, V domains shown) VH: MDWLWNLLFLMVVAQSAQAQIQLVQSGPEVKKPGESVKISCKASGYTFTDYAMNWVKQAPGNGLKWMGWINTQTGKPTYADDFKQRFVFSLETSARTTYLQINNLNIEDTATYFCTRLGTGNTKGFAYWGQGTLVTVSS VL: MESQTHVLISLLLCVSGTCGDILINQSPASLTVSAGERVTMSCKSSQSLLYSENNQDYLAWYQQKPGQFPKLLIYGASNRHTGVPDRFTGSGSGTDFTLTISSVQAEDLADYYCEQTYRYPFTFGSGTKLEIK","8.5 (8.0, 9.0) Days","8.5 (8.0, 9.0) Days",significantly inhibited tumor growth,do bind,Yes,inhibited CHO-hu α11-mediated collagen gel contraction,–
"8-I14: mouse anti-α11β1 mAb; VH SEQ ID NO: 109, VL SEQ ID NO: 110 (antibody, V domains shown) VH: EVQLQQSGPELVKPGASVKKSCKASGYTFTDYYMHWVKQKPGQGLEWIGKIYPGSGNTHYNEKFKGKATLTADKSSSTAYMQLSSLTSEDSAVYFCATNYYGYRAMNYWGQGSSVTVSS VL: DIHLTQSPSSLSASLGERISLTCRASQDIYISLNWFQQKPDGTIKLLIYGTSSLDSGVPKRFSGSRSGSDYSLTISSLESEDFADYYCLQYASSPYTFGGGTKLEIK",–,–,–,–,No,inhibited CHO-hu α11-mediated collagen gel contraction,–
"9-G05: mouse anti-α11β1 mAb; VH SEQ ID NO: 103, VL SEQ ID NO: 104 (antibody, V domains shown) VH: EVQLQQSGPELVKPGASVKIPCKASGYTFPDYNMDWVKQSHGKSLEWIGYINPDNGGTIYNQKFKGKATLTVDKSSSTAYMELRSLTSEDTAVYYCARLDSSGYGYYAMDYWGQGTSVTVSS VL: DIVLTQSPASLAVSLGQRATISCRASESVDNYGISFMHWYQQKPGQPPKLLIYRASNLDSEIPARFSGSGSRTDFTLTIDPVETDDVATYYCQQSYKDPRTFGGGTKLEIK",–,–,–,do bind,Yes,inhibited CHO-hu α11-mediated collagen gel contraction,–
"9-E16: mouse anti-α11β1 mAb; VH SEQ ID NO: 111, VL SEQ ID NO: 112 (antibody, V domains shown) VH: EVQLQQSGPELVKPGASVKISCKASGYTFTDYYMHWVKQKPGQGLEWIGEIYPGSGNPYYNEKFKGKATLTADKSSSSAYMQLSSLTSEDSAVYFCARTSYGRVGTGFAYWGQGTLVTVSA VL: NFVMTQTPLSLPVSLGDQASISCRSSQSLLHSNGNTYLHWYLQKPGQSPKLLIYKVSNRFSGVPDRFSGSGSGTDFTLKINRVETEDLGIYFCSQSSHVPTFGAGTKLELK",–,–,–,–,–,inhibited CHO-hu α11-mediated collagen gel contraction,–
"16E10: rabbit anti-α11β1 mAb; heavy chain SEQ ID NO: 161, light chain SEQ ID NO: 162 (antibody) heavy: METGLRWLLLVAVLKGVQCQSLEESGGDLVKPGASLTLTCRVSGFSFSSSYYMCWVRQAPGKGLEWIACIGTTRGSTYYATWAKGRFTISKISSTTVTLQMTSLTDADTATYFCARDATGYRINTIGLYFNLWGPGTLVTVSSGQPKAPSVFPLAPCCGDTPSSTVTLGCLVKGYLPEPVTVTWNSGTLTNGVRTFPSVRQSSGLYSLSSVVSVTSSSQPVTCNVAHPATNTKVDKTVAPSTCSKPMCPPPELPGGPSVFIFPPKPKDTLMISRTPEVTCVVVDVSQDDPEVQFTWYINNEQVRTARPPLREQQFNSTIRVVSTLPIAHQDWLRGKEFKCKVHNKALPAPIEKTISKARGQPLEPKVYTMGPPREELSSRSVSLTCMINGFYPSDISVEWEKNGKAEDNYKTTPTVLDSDGSYFLYSKLSVPTSEWQRGDVFTCSVMHEALHNHYTQKSISRSPGK light: MDTRAPTQLLGLLLLWLPGARCAFELTQTPSSVEAAVGGTPTIKCQASQTIYSYLSWYQQKPGQPPKLLIYEASKLASGVPSRFSGSGSGTDYTLTISDLECADAATYYCQSYHGTASTEYNTFGGGTEVVVRGDPVAPTVLIFPPAADQVATGTVTIVCVANKYFPDVTVTWEVDGTTQTTGIENSKTPQNSADCTYNLSSTLTLTSTQYNSHKEYTCKVTQGTTSVVQSFNRGDC","7.9 (7.5, 8.3) Days","7.9 (7.5, 8.3) Days",no significant inhibition of tumor growth,do not bind,Yes,inhibited CHO-hu α11-mediated collagen gel contraction,do not bind
"24E4G6: rat anti-α11β1 mAb; VH SEQ ID NO: 147, VL SEQ ID NO: 148 (antibody, V domains shown) VH: MELELSLIFIFSLLKDVQCEVQLVESGGSLVQPGGSLKLSCVASGYTFSNYWMDWVRQSPGKSLEWIGEINTDGRRTNYAPSIKDRFTISRDNAKSTLYLQMSNVKSDDTAIYYCTILRVYPHYFDYWGQGVMVTVSS VL: MMSPAQFLFLLMLWIQEARGDVVMTQTPPSLSVAIGQSVSISCKSSQSLVYSDGETYLHWFLQSPGRSPKRLIYHVSNLGSGVPDRFSGTGSLTDFTLRISRVEAEDLGVYYCAQTTHFPPTFGAGTKLELK",–,–,–,–,Yes,–,–
"16G7: rabbit anti-α11β1 mAb; heavy chain SEQ ID NO: 159, light chain SEQ ID NO: 160 (antibody) heavy: METGLRWLLLVAVFKGVQCQEQLVESGGDLVKPGASLTLTCTASGFSFNKNYWMCWVRQAPGKGLEWIGCIYNGDGNTYYASWVNGRFTISKTSSTTVTLQMTSLTVADTAIYFCARLLNMWGPGTLVTVSSGQPKAPSVFPLAPCCGDTPSSTVTLGCLVKGYLPEPVTVTWNSGTLTNGVRTFPSVRQSSGLYSLSSVVSVTSSSQPVTCNVAHPATNTKVDKTVAPSTCSKPMCPPPELPGGPSVFIFPPKPKDTLMISRTPEVTCVVVDVSQDDPEVQFTWYINNEQVRTARPPLREQQFNSTIRVVSTLPIAHQDWLRGKEFKCKVHNKALPAPIEKTISKARGQPLEPKVYTMGPPREELSSRSVSLTCMINGFYPSDISVEWEKNGKAEDNYKTTPTVLDSDGSYFLYSKLSVPTSEWQRGDVFTCSVMHEALHNHYTQKSISRSPGK light: MDTRAPTQLLGLLLLWLPGARCADIVMTQTPASVEAAVGGTVTIKCQASESIGNALAWYQQKPGQPPKLLIYTAATLASGVPSRFSGSGSGTEFTLTISGVQCDDAATYYCQSYYFTSVSSYGNAFGGGTEVVVKGDPVAPTVLIFPPAADQVATGTVTIVCVANKYFPDVTVTWEVDGTTQTTGIENSKTPQNSADCTYNLSSTLTLTSTQYNSHKEYTCKVTQGTTSVVQSFNRGDC",–,–,–,–,No,–,–
"9-B11: mouse anti-α11β1 mAb; VH SEQ ID NO: 115, VL SEQ ID NO: 116 (antibody, V domains shown) VH: QVQLQQPGAELVRPGTSVKLSCKASGYTFTSYWMHWVQQRPGQGLEWIGVIDPSDSYTNYNQKFKGKATLTVDTSSSSAYMQLSSLTSEDSAVYYCARDDVAMDYWGQGTSVTVSS VL: DIVVTQSPASLAVSLGQRATISCRASESVDSYGNSFIHWYQQKPGQPPKLLIYRASNLKSGIPARFSGSGSRTDFTLTINPVEADDVATYYCQQSNEDPYTFGGGTKLEIK",–,–,–,–,No,–,–
